Laboratory results published in patent US20250304927A1, “PRO-PEPTIDE VARIANTS FOR MODULATING ACTIVITY OF TRANSGLUTAMINASES” (CURIE CO. INC., priority 2022, published 2025).

T1: thermostable variant of Streptomyces mobaraensis transglutaminase (Streptomyces mobaraensis, UniProt P81453 79-407)
T1 sequence: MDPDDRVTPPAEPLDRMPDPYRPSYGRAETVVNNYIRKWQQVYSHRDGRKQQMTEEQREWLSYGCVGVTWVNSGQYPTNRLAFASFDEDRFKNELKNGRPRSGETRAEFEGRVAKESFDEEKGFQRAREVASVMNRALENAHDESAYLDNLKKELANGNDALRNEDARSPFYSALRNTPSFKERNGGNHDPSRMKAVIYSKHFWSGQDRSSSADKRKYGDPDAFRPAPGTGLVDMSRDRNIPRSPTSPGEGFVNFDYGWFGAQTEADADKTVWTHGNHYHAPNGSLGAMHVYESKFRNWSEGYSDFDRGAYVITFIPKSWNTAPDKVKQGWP


Tests used:
[1] = target: T1, thermostable variant of Streptomyces …; assay: cell-based or functional assay
[2] = target: T1, thermostable variant of Streptomyces …; assay: cell-based or functional assay; remark: listed apart in the source

Binder	Improvement in binding affinity of inhibitory peptide relative to WT [1]	Improvement in pH responsiveness of inhibitory peptide relative to WT [2]
MDNGAGECTKSYAETYRLTADDVANINALNESAPAASSAGPSFRAP [pro-peptide variant E8C]	> 1.2 fold	> 1.2 fold
MDNGAGEETKSYAETYRLTASDVANINALNESAPAASSAGPSFRAP [pro-peptide variant D21S]	> 1.2 fold	> 1.2 fold
MDNGAGEEAKSYAETYRLTADDVANINALNESAPAASSAGPSFRAP [pro-peptide variant T9A]	> 1.2 fold	> 1.2 fold
MDNGAGEEWKSYAETYRLTADDVANINALNESAPAASSAGPSFRAP [pro-peptide variant T9W]	> 1.2 fold	> 1.2 fold
MDNGAGEETKSYAETYRLTACDVANINALNESAPAASSAGPSFRAP [pro-peptide variant D21C]	> 1.2 fold	> 1.2 fold
MDNGAGEEVKSYAETYRLTADDVANINALNESAPAASSAGPSFRAP [pro-peptide variant T9V]	> 1.2 fold	> 1.2 fold
MDNGAGEETKSYAETYRLTAFDVANINALNESAPAASSAGPSFRAP [pro-peptide variant D21F]	> 1.2 fold	> 1.2 fold
MDNGAGEETKSYAETYRITADDVANINALNESAPAASSAGPSFRAP [pro-peptide variant L18I]	> 1.2 fold	> 1.2 fold
MDNGAGEETKSYASTYRLTADDVANINALNESAPAASSAGPSFRAP [pro-peptide variant E14S]	> 1.2 fold	> 5 fold
MDNGAGEETKSYAEDYRLTADDVANINALNESAPAASSAGPSFRAP [pro-peptide variant T15D]	> 1.2 fold	> 1.2 fold
MDNGAGEETKSYAETYRLTADAVANINALNESAPAASSAGPSFRAP [pro-peptide variant D22A]	> 1.2 fold	> 1.2 fold
MDNGAGEEHKSYAETYRLTADDVANINALNESAPAASSAGPSFRAP [pro-peptide variant T9H]	> 1.2 fold	> 1.2 fold
MDNGAGEETKSYAETYRLTADDVVNINALNESAPAASSAGPSFRAP [pro-peptide variant A24V]	> 1.2 fold	> 5 fold
MDNGAGEQTKSYAETYRLTADDVANINALNESAPAASSAGPSFRAP [pro-peptide variant E8Q]	> 1.2 fold	> 5 fold
MDNGAGEEGKSYAETYRLTADDVANINALNESAPAASSAGPSFRAP [pro-peptide variant T9G]	> 1.2 fold	> 1.2 fold
MDNGAGENTKSYAETYRLTADDVANINALNESAPAASSAGPSFRAP [pro-peptide variant E8N]	> 1.2 fold	> 1.2 fold
MDNGAGEETKSYAETYRLTADDVANINALNESAPAASFAGPSFRAP [pro-peptide variant S38F]	> 1.2 fold	> 1.2 fold
MDNGAGELTKSYAETYRLTADDVANINALNESAPAASSAGPSFRAP [pro-peptide variant E8L]	> 1.2 fold	> 1.2 fold
MDNGAGEEKKSYAETYRLTADDVANINALNESAPAASSAGPSFRAP [pro-peptide variant T9K]	> 1.2 fold	> 1.2 fold
MDNGAGEETKSYAQTYRLTADDVANINALNESAPAASSAGPSFRAP [pro-peptide variant E14Q]	> 1.2 fold	> 1.2 fold
MDNGAGERTKSYAETYRLTADDVANINALNESAPAASSAGPSFRAP [pro-peptide variant E8R]	> 1.2 fold	> 1.2 fold
MDNGAGEETKSYAEVYRLTADDVANINALNESAPAASSAGPSFRAP [pro-peptide variant T15V]	> 1.2 fold	> 1.2 fold
MDNGAGETTKSYAETYRLTADDVANINALNESAPAASSAGPSFRAP [pro-peptide variant E8T]	> 1.2 fold	> 1.2 fold
MDNGAGEETKSYAETYRLTAVDVANINALNESAPAASSAGPSFRAP [pro-peptide variant D21V]	> 1.2 fold	> 1.2 fold
MDNGAGEERKSYAETYRLTADDVANINALNESAPAASSAGPSFRAP [pro-peptide variant T9R]	> 1.2 fold	> 1.2 fold
MDNGAGEETKSYAETYRLTAMDVANINALNESAPAASSAGPSFRAP [pro-peptide variant D21M]	> 1.2 fold	> 5 fold
MDNGAGEEYKSYAETYRLTADDVANINALNESAPAASSAGPSFRAP [pro-peptide variant T9Y]	> 1.2 fold	> 1.2 fold
MDNGAGEELKSYAETYRLTADDVANINALNESAPAASSAGPSFRAP [pro-peptide variant T9L]	> 1.2 fold	> 1.2 fold
